In US20230193226A1, “BUTYRYLCHOLI[…] AN ENHANCED ABILITY TO HYDROLYZE ACYL GHRELIN” (priority 2014, published 2023):

Experiments:
BChE = target: T1, BChE (Mus musculus, UniProt Q03311, A228S/A357W/S256A/S316G/Y361G); assay: Selective BChE inhibition by iso-OMPA in vector-treated mice; type: in vivo; settings: AAV-mBChE mut mice, iso-OMPA 40 mg kg^-1, 6 hours fast
T1 construct: expressed in transfected cells; host or cells: C57bl/6 mice after AAV-mBChE mut gene transfer; activity measured in serum/plasma
Description: FIGS. 6A-6B. […] All mice were then fasted for 6 hours, and serum samples were collected to determine (6A) BChE activity versus the reference substrate (BTCh) and (6B) the levels of acyl ghrelin.

human acyl-ghrelin = assay: Deacylation of human acyl ghrelin by purified human BChE; type: biochemical
Description: FIGS. 3A-3D. […] (3B) One ng of human acyl-ghrelin was treated with different amount of human BChE. After 20 hours of incubation, residual acyl ghrelin and desacyl ghrelin in each reaction were determined. (3C) One ng of human acyl ghrelin was treated with 10 µg of human BChE and % decrease in residual acyl ghrelin was measured as a function of time. […] The hydrolysis activities with butyrylthiocholine (BTCh) or acyl-ghrelin as substrates were determined by Ellman assay and acyl-ghrelin immunoassay, respectively. Data are normalized to the no inhibitor controls. All values are means ± SD, each with duplicate samples (n=3).
A sample of purified human BChE was obtained from Dr. O. Lockridge and assessed by gel electrophoresis (FIG. 3A).

human ghrelin = assay: In vitro enzyme screening: ghrelin hydrolyzing activity of purified mutant BChE (ghrelin immunoassay); type: biochemical; settings: purified enzyme from HEK293 supernatant
[1] = 1 ng human acyl-ghrelin, increasing amounts of human BChE, 20 hours

For `CC(C)NP(=O)(NC(C)C)OP(=O)(NC(C)C)NC(C)C` [iso-OMPA], the “BTCh hydrolysis activity of plasma” value (BChE) was “abolished” and the “level of acyl ghrelin in plasma” value (BChE) was “equivalent to the level observed in AAV-Luc-treated control mice”.

B1: human BChE (protein, listed as Homo sapiens)
chain: MHSKVTIICIRFLFWFLLLCMLIGKSHTEDDIIIATKNGKVRGMNLTVFGGTVTAFLGIPYAQPPLGRLRFKKPQSLTKWSDIWNATKYANSCCQNIDQSFPGFHGSEMWNPNTDLSEDCLYLNVWIPAPKPKNATVLIWIYGGGFQTGTSSLHVYDGKFLARVERVIVVSMNYRVGALGFLALPGNPEAPGNMGLFDQQLALQWVQKNIAAFGGNPKSVTLFGESAGAASVSLHLLSPGSHSLFTRAILQSGSFNAPWAVTSLYEARNRTLNLAKLTGCSRENETEIIKCLRNKDPQEILLNEAFVVPYGTPLSVNFGPTVDGDFLTDMPDILLELGQFKKTQILVGVNKDEGTAFLVYGAPGFSKDNNSIITRKEFQEGLKIFFPGVSEFGKESILFHYTDWVDDQRPENYREALGDVVGDYNFICPALEFTKKFSEWGNNAFFYYFEHRSSKLPWPEWMGVMHGYEIEFVFGLPLERRDNYTKAEEILSRSIVKRWANFAKYGNPNETQNNSTSWPVFKSTEQKYLTLNTESTRIMTKLRAQQCRFWTSFFPKVLEMTGNIDEAEWEWKAGFHRWNNYMMDWKNQFNDYTSKKESCVGL
With B1 the “acyl ghrelin hydrolysis rate as a function of time” value (human acyl-ghrelin; 1 ng human acyl ghrelin, 10 µg human BChE) was “linear hydrolysis rate”, the “amount of acyl ghrelin” value (human acyl-ghrelin; [1]) was “decrease in the amount of acyl ghrelin” and the “amount of desacyl ghrelin” value (human acyl-ghrelin; [1]) was “increase in the amount of the breakdown product, desacyl ghrelin”.

B2: A199S/S227A/S287G/A328W/Y332G (protein)
chain: EEDFIITTKTGRVRGLSMPVLGGTVTAFLGIPYAQPPLGSLRFKKPQPLNKWPDIHNATQYANSCYQNIDQAFPGFQGSEMWNPNTNLSEDCLYLNVWIPVPKPKNATVMVWIYGGGFQTGTSSLPVYDGKFLARVERVIVVSMNYRVGALGFLAFPGNPDAPGNMGLFDQQLALQWVQRNIAAFGGNPKSITIFGESSGAASVSLHLLCPQSYPLFTRAILESGSANAPWAVKHPEEARNRTLTLAKFTGCSKENEMEMIKCLRSKDPQEILRNERFVLPSDSILGINFGPTVDGDFLTDMPHTLLQLGKVKKAQILVGVNKDEGTWFLVGGAPGFSKDNDSLITRKEFQEGLNMYFPGVSRLGKEAVLFYYVDWLGEQSPEVYRDALDDVIGDYNIICPALEFTKKFAELENNAFFYFFEHRSSKLPWPEWMGVMHGYEIEFVFGLPLGRRVNYTRAEEIFSRSIMKTWANFAKYGHPNGTQGNSTMWPVFTSTEQKYLTLNTEKSKIYSKLRAPQCQFWRLFFPKVLEMTGDIDETEQEWKAGFHRWSNYMMDWQNQFNDYTSKKESCTAL
In the case of B2, the “ghrelin hydrolyzing activity in vitro” value (human ghrelin) is reported as “enhanced activity” and the “ghrelin hydrolyzing activity relative to wild type mouse BChE” value (human ghrelin) is reported as “at least 20 fold”.

B3: A199S/F227A/S287G/A328W/Y332G (protein)
chain: EDDIIIATKNGKVRGMNLTVFGGTVTAFLGIPYAQPPLGRLRFKKPQSLTKWSDIWNATKYANSCCQNIDQSFPGFHGSEMWNPNTDLSEDCLYLNVWIPAPKPKNATVLIWIYGGGFQTGTSSLHVYDGKFLARVERVIVVSMNYRVGALGFLALPGNPEAPGNMGLFDQQLALQWVQKNIAAFGGNPKSVTLFGESSGAASVSLHLLSPGSHSLFTRAILQSGSANAPWAVTSLYEARNRTLNLAKLTGCSRENETEIIKCLRNKDPQEILLNEAFVVPYGTPLGVNFGPTVDGDFLTDMPDILLELGQFKKTQILVGVNKDEGTWFLVGGAPGFSKDNNSIITRKEFQEGLKIFFPGVSEFGKESILFHYTDWVDDQRPENYREALGDVVGDYNFICPALEFTKKFSEWGNNAFFYYFEHRSSKLPWPEWMGVMHGYEIEFVFGLPLERRDNYTKAEEILSRSIVKRWANFAKYGNPNETQNNSTSWPVFKSTEQKYLTLNTESTRIMTKLRAQQCRFWTSFFPKVLEMTGNIDEAEWEWKAGFHRWNNYMMDWKNQFNDYTSKKESCVGL
For B3, the “ghrelin hydrolyzing activity in vitro” value (human ghrelin) was “modest activity, comparable to that of wild type human BChE”.
